Assay results: patent US20230265151A1, “GIP/GLP1 CO-AGONIST COMPOUNDS” (priority 2020, published 2023)
Numbering of substitutions follows the chain as printed. *1 amine or outer side, *2 acyl side, *3 side chain or, on linkers, in order; H or OH if unused. Where no end group is shown, it is not given here. Side-chain parts run from the residue outwards. [ ]: non-standard residue; d: D form. The star is where a group is joined. αMePhe(2-F) = C[C@](N)(Cc1ccccc1F)C(=O)O; γGlu = O=C(O)[C@H](CCC(=O)[*:2])N[*:1]; C14 diacid = O=C(O)CCCCCCCCCCCCC(=O)*; αMeY = C[C@](N)(Cc1ccc(O)cc1)C(=O)O; αMeL = CC(C)C[C@](C)(N)C(=O)O; Nle = CCCC[C@H](N)C(=O)O; Orn = NCCC[C@H](N)C(=O)O; AEEA = NCCOCCOCC(=O)O; Aib = CC(C)(N)C(=O)O

T1: human GIP receptor (human, UniProt P48546 22-466)
T1 sequence (looked up): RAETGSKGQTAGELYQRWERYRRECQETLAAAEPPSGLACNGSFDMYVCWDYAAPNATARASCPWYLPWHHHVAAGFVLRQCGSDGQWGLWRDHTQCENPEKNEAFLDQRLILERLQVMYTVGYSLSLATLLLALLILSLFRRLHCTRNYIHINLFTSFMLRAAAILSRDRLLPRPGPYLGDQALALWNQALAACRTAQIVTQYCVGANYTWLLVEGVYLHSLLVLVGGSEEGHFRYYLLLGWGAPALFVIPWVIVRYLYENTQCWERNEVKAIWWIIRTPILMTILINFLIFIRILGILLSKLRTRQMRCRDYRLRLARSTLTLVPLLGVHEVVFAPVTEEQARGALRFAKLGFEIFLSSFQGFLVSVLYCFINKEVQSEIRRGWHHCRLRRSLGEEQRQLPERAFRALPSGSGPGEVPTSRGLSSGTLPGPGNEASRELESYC

B1: Example 252 (peptide)
peptide: YXEGTXTSDXSIXLDXIAQXEFIKXLIKGGPSSGAPPPS
modifications: Y-Aib-EGT-αMeF(2F)-TSD-2Nal-SI-αMeL-LD-Orn-IAQ-Aib-EFIK((2-[2-(2-Amino-ethoxy)-ethoxy]-acetyl)2-(γ-Glu)-CO-(CH2)12-CO2H)-αMeY-LIK((2-[2-(2-Amino-ethoxy)-ethoxy]-acetyl)2-(γ-Glu)-CO-(CH2)12-CO2H)GGPSSGAPPPS-NH2
B2: Example 227 (peptide)
peptide: B1 peptide with E21K, K24X
modifications: Y-Aib-EGT-αMeF(2F)-TSD-4Pal-SI-αMeL-LD-Orn-IAQ-Aib-K((2-[2-(2-Amino-ethoxy)-ethoxy]-acetyl)3-(γ-Glu)-CO-(CH2)12-CO2H)FI-(D-Glu)-αMeY-LIK((2-[2-(2-Amino-ethoxy)-ethoxy]-acetyl)3-(γ-Glu)-CO-(CH2)12-CO2H)GGPSSGAPPPS-NH2
B3: Example 259 (peptide)
peptide: B1 peptide with I17K, E21K, K24X, K28E
modifications: Y-Aib-EGT-αMeF(2F)-TSD-OMeY-SI-αMeL-LD-Orn-K((2-[2-(2-Amino-ethoxy)-ethoxy]-acetyl)2-(γ-Glu)-CO-(CH2)12-CO2H)AQ-Aib-K((2-[2-(2-Amino-ethoxy)-ethoxy]-acetyl)2-(γ-Glu)-CO-(CH2)12-CO2H)FI-(D-Glu)-αMeY-LIEGGPSSGAPPPS-NH2
B4: Example 271 (peptide)
peptide: B1 peptide with I17K, E21K, K24X, K28E
modifications: Y-Aib-EGT-αMeF(2F)-TSD-Nle-SI-αMeL-LD-Orn-K((2-[2-(2-Amino-ethoxy)-ethoxy]-acetyl)2-CO-(CH2)12-CO2H)AQ-Aib-K((2-[2-(2-Amino-ethoxy)-ethoxy]-acetyl)2-CO-(CH2)12-CO2H)FI-(D-Glu)-αMeY-LIEGGPSSGAPPPS-NH2
B5: Example 260 (peptide)
peptide: B1 peptide with I17K, K24X
modifications: Y-Aib-EGT-αMeF(2F)-TSD-OMeY-SI-αMeL-LD-Orn-K((2-[2-(2-Amino-ethoxy)-ethoxy]-acetyl)2-(γ-Glu)-CO-(CH2)12-CO2H)AQ-Aib-EFI-(D-Glu)-αMeY-LIK((2-[2-(2-Amino-ethoxy)-ethoxy]-acetyl)2-(γ-Glu)-CO-(CH2)12-CO2H)GGPSSGAPPPS-NH2
B6: Example 225 (peptide)
peptide: YXEGTXTSDXSIXLDXKAQXEFIXXLIEGGPSSGAPPPSK
modifications: Y-Aib-EGT-αMeF(2F)-TSD-4Pal-SI-αMeL-LD-Orn-K((2-[2-(2-Amino-ethoxy)-ethoxy]-acetyl)3-(γ-Glu)-CO-(CH2)12-CO2H)AQ-Aib-EFI-(D-Glu)-αMeY-LIEGGPSSGAPPPSK((2-[2-(2-Amino-ethoxy)-ethoxy]-acetyl)3-(γ-Glu)-CO-(CH2)12-CO2H)-NH2
B7: Example 254 (peptide)
peptide: B6 peptide with K17I, E21K
modifications: Y-Aib-EGT-αMeF(2F)-TSD-2Nal-SI-αMeL-LD-Orn-IAQ-Aib-K((2-[2-(2-Amino-ethoxy)-ethoxy]-acetyl)2-(γ-Glu)-CO-(CH2)12-CO2H)FI-(D-Glu)-αMeY-LIEGGPSSGAPPPSK((2-[2-(2-Amino-ethoxy)-ethoxyl-acetyl)2-(γ-Glu)-CO-(CH2)12-CO2H)-NH2
B8: Example 228 (peptide)
peptide: B6 peptide with K17I, E21K
modifications: Y-Aib-EGT-αMeF(2F)-TSD-4Pal-SI-αMeL-LD-Orn-IAQ-Aib-K((2-[2-(2-Amino-ethoxy)-ethoxy]-acetyl)3-(γ-Glu)-CO-(CH2)12-CO2H)FI-(D-Glu)-αMeY-LIEGGPSSGAPPPSK((2-[2-(2-Amino-ethoxy)-ethoxy]-acetyl)3-(γ-Glu)-CO-(CH2)12-CO2H)-NH2
B9: Example 258 (peptide)
peptide: B6 peptide with K17I, E21K
modifications: Y-Aib-EGT-αMeF(2F)-TSD-2Nal-SI-αMeL-LD-Orn-IAQ-Aib-K((2-[2-(2-Amino-ethoxy)-ethoxy]-acetyl)2-CO-(CH2)12-CO2H)Fl-(D-Glu)-αMeY-LIEGGPSSGAPPPSK((2-[2-(2-Amino-ethoxy)-ethoxy]-acetyl)2-CO-(CH2)12-CO2H)-NH2
B10: Example 264 (peptide)
peptide: B6 peptide with K17I, E21K
modifications: Y-Aib-EGT-αMeF(2F)-TSD-OMeY-SI-αMeL-LD-Orn-IAQ-Aib-K((2-[2-(2-Amino-ethoxy)-ethoxy]-acetyl)2-(γ-Glu)-CO-(CH2)12-CO2H)FI-(D-Glu)-αMeY-LIEGGPSSGAPPPSK((2-[2-(2-Amino-ethoxy)-ethoxyl-acetyl)2-(γ-Glu)-CO-(CH2)12-CO2H)-NH2
B11: Example 267 (peptide)
peptide: B6 peptide
modifications: Y-Aib-EGT-αMeF(2F)-TSD-OMeY-SI-αMeL-LD-Orn-K((2-[2-(2-Amino-ethoxy)-ethoxy]-acetyl)2-CO-(CH2)12-CO2H)AQ-Aib-EFI-(D-Glu)-αMeY-LIEGGPSSGAPPPSK((2-[2-(2-Amino-ethoxy)-ethoxy]-acetyl)2-CO-(CH2)12-CO2H)-NH2
B12: Example 251 (peptide)
peptide: B6 peptide
modifications: Y-Aib-EGT-αMeF(2F)-TSD-2Nal-SI-αMeL-LD-Orn-K((2-[2-(2-Amino-ethoxy)-ethoxy]-acetyl)2-(γ-Glu)-CO-(CH2)12-CO2H)AQ-Aib-EFI-(D-Glu)-αMeY-LIEGGPSSGAPPPSK((2-[2-(2-Amino-ethoxy)-ethoxyl-acetyl)2-(γ-Glu)-CO-(CH2)12-CO2H)-NH2
B13: Example 268 (peptide)
peptide: B6 peptide with K17I, E21K
modifications: Y-Aib-EGT-αMeF(2F)-TSD-OMeY-SI-αMeL-LD-Orn-IAQ-Aib-K((2-[2-(2-Amino-ethoxy)-ethoxy]-acetyl)2-CO-(CH2)12-CO2H)FI-(D-Glu)-αMeY-LIEGGPSSGAPPPSK((2-[2-(2-Amino-ethoxy)-ethoxy]-acetyl)2-CO-(CH2)12-CO2H)-NH2
B14: Example 257 (peptide)
peptide: B6 peptide
modifications: Y-Aib-EGT-αMeF(2F)-TSD-2Nal-SI-αMeL-LD-Orn-K((2-[2-(2-Amino-ethoxy)-ethoxy]-acetyl)2-CO-(CH2)12-CO2H)AQ-Aib-EFI-(D-Glu)-αMeY-LIEGGPSSGAPPPSK((2-[2-(2-Amino-ethoxy)-ethoxy]-acetyl)2-CO-(CH2)12-CO2H)-NH2
B15: Example 261 (peptide)
peptide: B6 peptide
modifications: Y-Aib-EGT-αMeF(2F)-TSD-OMeY-SI-αMeL-LD-Orn-K((2-[2-(2-Amino-ethoxy)-ethoxy]-acetyl)2-(γ-Glu)-CO-(CH2)12-CO2H)AQ-Aib-EFI-(D-Glu)-αMeY-LIEGGPSSGAPPPSK((2-[2-(2-Amino-ethoxy)-ethoxy]-acetyl)2-(γ-Glu)-CO-(CH2)12-CO2H)-NH2
B16: Example 269 (peptide)
peptide: Y[Aib]EGT[αMePhe(2-F)]TSD[Nle]SI[αMeL]LD[Orn]IAQ[Aib]EFIK([AEEA-AEEA-γGlu-C14 diacid])[αMeY]LIK([AEEA-AEEA-γGlu-C14 diacid])GGPSSGAPPPS-NH2
modifications: N-terminus assumed
SMILES: CCCC[C@H](NC(=O)[C@H](CC(=O)O)NC(=O)[C@H](CO)NC(=O)[C@@H](NC(=O)[C@](C)(Cc1ccccc1F)NC(=O)[C@@H](NC(=O)CNC(=O)[C@H](CCC(=O)O)NC(=O)C(C)(C)NC(=O)[C@@H](N)Cc1ccc(O)cc1)[C@@H](C)O)[C@@H](C)O)C(=O)N[C@@H](CO)C(=O)N[C@H](C(=O)N[C@@](C)(CC(C)C)C(=O)N[C@@H](CC(C)C)C(=O)N[C@@H](CC(=O)O)C(=O)N[C@@H](CCCN)C(=O)N[C@H](C(=O)N[C@@H](C)C(=O)N[C@@H](CCC(N)=O)C(=O)NC(C)(C)C(=O)N[C@@H](CCC(=O)O)C(=O)N[C@@H](Cc1ccccc1)C(=O)N[C@H](C(=O)N[C@@H](CCCCNC(=O)COCCOCCNC(=O)COCCOCCNC(=O)CC[C@H](NC(=O)CCCCCCCCCCCCC(=O)O)C(=O)O)C(=O)N[C@@](C)(Cc1ccc(O)cc1)C(=O)N[C@@H](CC(C)C)C(=O)N[C@H](C(=O)N[C@@H](CCCCNC(=O)COCCOCCNC(=O)COCCOCCNC(=O)CC[C@H](NC(=O)CCCCCCCCCCCCC(=O)O)C(=O)O)C(=O)NCC(=O)NCC(=O)N1CCC[C@H]1C(=O)N[C@@H](CO)C(=O)N[C@@H](CO)C(=O)NCC(=O)N[C@@H](C)C(=O)N1CCC[C@H]1C(=O)N1CCC[C@H]1C(=O)N1CCC[C@H]1C(=O)N[C@@H](CO)C(N)=O)[C@@H](C)CC)[C@@H](C)CC)[C@@H](C)CC)[C@@H](C)CC

Target: T1, human GIP receptor
Test: cell-based or functional assay

Row | Binder | cAMP EC50 (1.0% HSA) [nM] | cAMP Emax (1.0% HSA) [%]
1 | B1 | 29.9 | –
2 | B2 | 1.59 | –
3 | B3 | 2.34 | 66.4
4 | B4 | 0.767 | –
5 | B5 | 3.27 | –
6 | B6 | 1.81 | 67.5
7 | B7 | 16.8 | 68.5
8 | B8 | 3.37 | 83.3
9 | B9 | 5.28 | 84.3
10 | B10 | 7.12 | 84.4
11 | B11 | 0.808 | –
12 | B12 | 14.3 | 71.2
13 | B13 | 5.06 | 92.3
14 | B14 | 5.61 | 72.2
15 | B15 | 2.28 | 75.7
16 | B16 | 2.65 | –

Target: human glucagon receptor (human, UniProt P47871 26-477)
Test: cell-based or functional assay

Row | Binder | cAMP EC50 (1.0% HSA) [nM]
17 | B1 | > 9950
18 | B2 | > 9950
19 | B3 | > 9950
20 | B4 | > 9950
21 | B5 | > 9950
22 | B6 | > 9950
23 | B7 | > 9950
24 | B8 | > 9950
25 | B9 | > 9950
26 | B10 | > 9950
27 | B11 | > 9950
28 | B12 | > 9950
29 | B13 | > 9950
30 | B14 | > 9950
31 | B15 | > 9950
32 | B16 | > 9950

Target: human GLP-1 receptor (human, UniProt P43220 24-463)
Test: cell-based or functional assay

Row | Binder | cAMP EC50 (1.0% HSA) [nM] | cAMP Emax (1.0% HSA) [%]
33 | B1 | 131 | –
34 | B2 | 41.8 | –
35 | B3 | 28.9 | –
36 | B4 | 10.2 | –
37 | B5 | 32 | –
38 | B6 | 51.6 | –
39 | B7 | 211 | 122
40 | B8 | 42 | 119
41 | B9 | 41.5 | –
42 | B10 | 75.2 | –
43 | B11 | 8.46 | –
44 | B12 | 51 | –
45 | B13 | 26.5 | –
46 | B14 | 46.3 | –
47 | B15 | 15.6 | –
48 | B16 | 46.5 | –
